Target: the molecule itself
Test: self-association (trimerization); EGS crosslinking of K562 cell extracts, SDS-PAGE, western blot
Source text: FIG. 9: The HSF1 K80Q mutant is not defective in trimerization ability. A prerequisite of stable HSF binding to DNA is the formation of trimeric HSF complexes. Therefore, it is conceivable that mutations of K80 disrupted proper HSF1 folding or the stress-induced formation of HSF trimers. To explore this possibility, e a cross-linking assay was used to determine the formation of higher-order complexes upon heat shock. K562 cells were transfected with WT Myc-HSF1, Myc-HSF1 K80Q or Myc-HSF1 M391K, L395P, a previously characterized HSF1 mutant that is constitutively trimeric (14). Cells were treated with or without heat shock (HS, 42° C., 20 minutes) followed by treatment with the EGS crosslinking agent. Protein extracts were separated by SDS-PAGE and western blot analysis was performed with the indicated antibodies. The arrow indicates monomeric HSF1 and the arrowhead marks trimeric HSF1.

B1: Myc-HSF1 K80Q (other)
chain: MDLPVGPGAAGPSNVPAFLTKLWTLVSDPDTDALICWSPSGNSFHVFDQGQFAKEVLPKYFKHNNMASFVRQLNMYGFRQVVHIEQGGLVKPERDDTEFQHPCFLRGQEQLLENIKRKVTSVSTLKSEDIKIRQDSVTKLLTDVQLMKGKQECMDSKLLAMKHENEALWREVASLRQKHAQQQKVVNKLIQFLISLVQSNRILGVKRKIPLMLNDSGSAHSMPKYSRQFSLEHVHGSGPYSAPSPAYSSSSLYAPDAVASSGPIISDITELAPASPMASPGGSIDERPLSSSPLVRVKEEPPSPPQSPRVEEASPGRPSSVDTLLSPTALIDSILRESEPAPASVTALTDARGHTDTEGRPPSPPPTSTPEKCLSVACLDKNELSDHLDAMDSNLDNLQTMLSSHGFSVDTSALLDLFSPSVTVPDMSLPDLDSSLASIQELLSPQEPPRPPEAENSSPDSGKQLVHYTAQPLFLLDPGSVDTGSNDLPVLFELGEGSYFSEGDGFAEDPTISLLTGSEPPKAKDPTVS
notes: also called K80Q mutant; K80Q HSF1; not shown: Myc tag
**Q.** Does B1 bind?
**A.** binds

Source: patent US20110311508A1 (NORTHWESTERN UNIVERSITY, published 2011)
